Test [1] has as its target HLA-A*02:02. The test can be described thus: IEDB peptide-MHC binding, cellular MHC/competitive/fluorescence; ≥ and ≤ were set here for values at or beyond the usual limits of such assays.
In test [2] the target is HLA-A*02:01. Described as above.
Test [3] deals with HLA-A*02:06. As to the kind of experiment: IEDB peptide-MHC binding, purified MHC/competitive/radioactivity; ≥ and ≤ were set here for values at or beyond the usual limits of such assays.
In test [4] the target is HLA-A*68:02. The description is as above.
Test [5] addresses HLA-A*02:03. The description is as above.
In test [6] the target is HLA-A*68:02. As to the kind of experiment: IEDB peptide-MHC binding, cellular MHC/competitive/fluorescence; ≥ and ≤ were set here for values at or beyond the usual limits of such assays.
Test [7] concerns the target HLA-A*02:01. As to the kind of experiment: IEDB peptide-MHC binding, purified MHC/competitive/radioactivity; ≥ and ≤ were set here for values at or beyond the usual limits of such assays.
[8] abbreviates: source organism: Vaccinia virus WR.
[9] abbreviates: source organism: Mammarenavirus lassaense.
[10] abbreviates: source organism: Influenza A virus.

Usually IC50 stands for the concentration that inhibits the measured activity by half.

Consider KLVETGFVI, for which the IC50 in test [1] (setting [8]) amounted to 13200 nM; in test [2] (setting [8]), 14300 nM; in test [3] (setting [8]) it was 200 nM; in test [4] (setting [8]) it was 1060 nM; in test [5] (setting [8]), 1070 nM.
Regarding LVQYRILPMI, the half-maximal inhibitory concentration (IC50) in test [1] (setting [8]) is 12500 nM; in test [6] (setting [8]), 12500 nM; in test [3] (setting [8]), 712 nM; in test [7] (setting [8]), 2540 nM; in test [5] (setting [8]) it was 1200 nM.
Take MAAAKTPVIV: the IC50 was 6010 nM in test [1] (setting [8]); 8470 nM in test [2] (setting [8]); 3630 nM in test [3] (setting [8]); 1210 nM in test [4] (setting [8]); 156 nM in test [5] (setting [8]).
On to MSIQLINKAV, for which the IC50 turned out to be 11400 nM in test [1] (setting [9]); 7210 nM in test [2] (setting [9]); 619 nM in test [3] (setting [9]); 11 nM in test [4] (setting [9]); 1800 nM in test [5] (setting [9]).
Consider NINIEVKLFI, for which the IC50 in test [1] (setting [8]) stood at 12500 nM; in test [6] (setting [8]), 7440 nM; in test [3] (setting [8]) it was 2320 nM; in test [7] (setting [8]) it was 1170 nM; in test [5] (setting [8]) it was 2050 nM.
NIYRLFTRCA: the IC50 in test [1] (setting [8]) is 9890 nM; in test [3] (setting [8]), 23 nM; in test [4] (setting [8]), 250 nM; in test [7] (setting [8]), 810 nM; in test [5] (setting [8]), 138 nM.
For NVMGMIGI, the IC50 in test [1] (setting [10]) is 5920 nM; in test [2] (setting [10]) it was 14500 nM; in test [3] (setting [10]) it was 2060 nM; in test [4] (setting [10]), 187 nM; in test [5] (setting [10]), 4810 nM.
For NVTYNIKPV, the half-maximal inhibitory concentration (IC50) in test [1] (setting [8]) stood at 22800 nM; in test [2] (setting [8]), 6360 nM; in test [3] (setting [8]), 855 nM; in test [4] (setting [8]) it was 376 nM; in test [5] (setting [8]), 153 nM.
Regarding RTIDAINKCV, the IC50 in test [1] (setting [8]) worked out at 10800 nM; in test [2] (setting [8]), 25000 nM; in test [3] (setting [8]), 341 nM; in test [4] (setting [8]), 289 nM; in test [5] (setting [8]) it was 334 nM.
For SASDMQKFTI, in that order: 10800 nM, 13500 nM, 4250 nM, 487 nM and 1220 nM.
With SLCPIRGWAI, the IC50 in test [1] (setting [10]) was 5520 nM; in test [6] (setting [10]), 16200 nM.
As to STFNMWREI, the IC50 in test [1] (setting [8]) worked out at 5820 nM; in test [2] (setting [8]), 5670 nM; in test [3] (setting [8]) it was 95 nM; in test [4] (setting [8]), 20 nM; in test [5] (setting [8]), 713 nM.
In the case of STIANSNII, the IC50 in test [1] (setting [8]) amounted to 6120 nM; in test [2] (setting [8]), 12700 nM; in test [3] (setting [8]) it was 1240 nM; in test [4] (setting [8]), 35 nM; in test [5] (setting [8]) it was 1470 nM.
For STVDVRNIV, in that order: 6330 nM, 8070 nM, 1630 nM, 18 nM and 3480 nM.
Turning to TISWMMKLGI, the IC50 in test [1] (setting [8]) was 7840 nM; in test [3] (setting [8]) it was 2780 nM; in test [4] (setting [8]) it was 1480 nM; in test [7] (setting [8]), 4570 nM; in test [5] (setting [8]), 972 nM.
VIDRLPSET: the IC50 in test [1] (setting [8]) stood at 7080 nM; in test [6] (setting [8]), 8570 nM; in test [3] (setting [8]), 3670 nM; in test [7] (setting [8]), 3500 nM; in test [5] (setting [8]), 742 nM.
For VILKDPRIA, in that order: 10600 nM, 37900 nM, 318 nM, 697 nM and 603 nM.
For VLEKKVCAI, in that order: 14400 nM, 45400 nM, 3390 nM, 1370 nM and 2310 nM.
For VQLPKRGVRV the same measures were 33700 nM, 55700 nM, 41 nM, 1640 nM and 2210 nM.
Regarding VQLSNNKYV, the IC50 in test [1] (setting [8]) was 7340 nM; in test [6] (setting [8]) it was not below 70000 nM; in test [3] (setting [8]), 214 nM; in test [7] (setting [8]), 1820 nM; in test [5] (setting [8]) it was 541 nM.
For VTLNRIKIA the same measures were 13300 nM, 26300 nM, 625 nM, 1100 nM and 407 nM.
On to YASLTTIGTI, for which the IC50 in test [1] (setting [8]) was determined as 6300 nM; in test [2] (setting [8]), 8420 nM; in test [3] (setting [8]), 84 nM; in test [4] (setting [8]), 133 nM; in test [5] (setting [8]), 398 nM.
For YIWIKNLET, the IC50 in test [1] (setting [8]) worked out at 12600 nM; in test [6] (setting [8]), 32000 nM; in test [3] (setting [8]) it was 347 nM; in test [5] (setting [8]) it was 1180 nM.
Consider YLVQQESSFV, for which the IC50 came to 12700 nM in test [1] (source organism: SARS-CoV1); 386 nM in test [3] (source organism: SARS-CoV1); 3410 nM in test [4] (source organism: SARS-CoV1); 76 nM in test [7] (source organism: SARS-CoV1); 17 nM in test [5] (source organism: SARS-CoV1).

Source of the values: the Immune Epitope Database (IEDB).
